Test results taken from article PMC12485133.

Assays:
[1] = molecular target: N-myristoylated human Arf1 bound to GTPγS, anchored on nanodiscs (myrArf1·GTPγS) (human) (UniProt P84077); experiment: not stated; binding of PH variants and Arf variants compared with wild type (Fig. SI8 and Table SI1); the method is not given
[2] = molecular target: N-myristoylated human Arf1 bound to GTPγS, anchored on nanodiscs (myrArf1·GTPγS) (human) (UniProt P84077)

Sequence of N-myristoylated human Arf1 bound to GTPγS, anchored on nanodiscs (myrArf1·GTPγS) (human) (P84077 whole entry): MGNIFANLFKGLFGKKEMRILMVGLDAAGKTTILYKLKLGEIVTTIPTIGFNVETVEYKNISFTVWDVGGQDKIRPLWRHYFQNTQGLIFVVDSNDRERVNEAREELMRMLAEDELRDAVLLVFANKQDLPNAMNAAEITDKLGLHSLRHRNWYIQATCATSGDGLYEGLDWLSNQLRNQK

- fold reduction of binding against wild type [1]: 2 fold
- fold decrease in GAP activity compared with wild type (C50 of PZA, Fig. 7C) [2]: 100 fold
Substance: ASAP1 PH domain Lys391Ala (from UniProt Q9QWY8 325-451) (domain or fragment)
